# Ends that are not written are not given here.
# Assays:
# [1] = monomer and homodimer TFF3 domains; reduced glutathione 10 equivalents, 100 μM, pH 7; ref [22]; cited from earlier work
# Text: (§1) Many secretory proteins contain disulfide bonds, with most formed during folding in the endoplasmic reticulum. The trefoil factor family (TFF) is a highly relevant example of such secretory peptides in humans, with three characteristic peptides (TFF1, TFF2, TFF3) produced by mucous epithelia. They are most abundantly secreted throughout different compartments of the gastrointestinal tract, where they have important functions in protecting the epithelium barrier and maintaining mucosal epithelial homeostasis. Each member of the family has at least one highly conserved TF ...
# [2] = tested on: gastrointestinal proteases; details: ref [17]-[21]; cited from earlier work
# Text: as §1
# [3] = Reductive stability of disulfide bonds: TCEP reduction, IAM alkylation, LC-MS; format: physicochemical; details: chemical stability to reduction, 30 min, room temperature (25 °C), then IAM 100 eq/Cys 5 min, TFA quench; for Reduction and alkylation of disulfide bonds with 5 equivalents of TCEP: peptide 150 μM in 100 mM tris.HCl pH 7.4, 5 molar equivalents TCEP per peptide; for Reduction and alkylation of disulfide bonds with 15 equivalents of TCEP: peptide 150 μM in 100 mM tris.HCl pH 7.4, 15 molar equivalents TCEP per peptide; for Reduction and alkylation of disulfide bonds with 150 equivalents of TCEP: peptide 150 μM in 100 mM tris.HCl pH 7.4, 150 molar equivalents TCEP per peptide
# Procedure: Peptides were purified by preparative RP-HPLC using a C5 column (Phenomenex Luna; 10 μm, 21.2 mm ID × 250 mm; flow rate 20 mL/min) on a Shimadzu LC-20A system running a linear gradient of solvents A (0.1 % TFA (aq) and B (90 % acetonitrile (aq)/0.1 % TFA). Fractions were analyzed by liquid chromatography-mass spectrometry (LC-MS), and those containing the desired peptide and >95 % purity were pooled and lyophilized. LC-MS analyses were performed on a C18 column (Agilent Eclipse Plus; […], 2.1 mm ID x 50 mm; flow rate 0.25 mL/min), using a QSTAR Elite electrospray ionization quadrupole time-of-flight (ESI QqTOF) mass spectrometer (SCIEX) linked to an upstream Shimadzu LC-20A HPLC system. HPLC solvents were the same as described previously, substituting formic acid for TFA. Peptides were separated on a gradient of 2–60 % B over 10 min and analyzed over a mass range of 200–2000 amu.
# Peptides (TFF1, linaclotide, or BPTI) were dissolved to a concentration of 150 μM in 100 mM tris.HCl, pH 7.4. TCEP and IAM were prepared as separate 0.5 M solutions in 100 mM tris.HCl and the pH of all solutions were adjusted with concentrated KOH to pH 7.4. 25 μL of peptide (3.75 nmol) were treated with 0.5 M TCEP (0–150 molar equivalents per peptide). The samples were incubated at room temperature (25 °C) for 30 min, whereby they were treated with 5 μL (2.5 μmol; 100 eq/Cys) IAM for 5 min, followed by quenching with 5 μL TFA to reduce the pH to 2–3. Samples were then analyzed by LC-MS.
molecule,measurement,setting,value
"TFF3: trefoil factor family secretory peptide 3, with TFF domain (EEYVGLSANQCAVPAKDRVDCGYPHVTPKECNNRGCCFDSRIPGVPWCFKPLQEAECTF; ends and bridges not checked; also: three intramolecular disulfides in TFF domain, pairing not given here; UniProt Q07654 22-80, looked up)",Persistence of disulfide bonds in the presence of reduced glutathione,[1],no disulfide bond reduction or scrambling detected
same,Resistance of the TFF domain to gastrointestinal proteases,[2],resistance
bovine pancreatic trypsin inhibitor [BPTI],Reduction and alkylation of disulfide bonds with 5 equivalents of TCEP,[3],complete reduction and alkylation of a single disulfide bond
same,Reduction and alkylation of disulfide bonds with 15 equivalents of TCEP,[3],no further reduction
same,Reduction and alkylation of disulfide bonds with 150 equivalents of TCEP,[3],No further reduction
linaclotide,Reduction and alkylation of disulfide bonds with 5 equivalents of TCEP,[3],partial reduction and alkylation of a single disulfide bond
same,Reduction and alkylation of disulfide bonds with 15 equivalents of TCEP,[3],fully reduced and alkylated
same,Reduction and alkylation of disulfide bonds with 150 equivalents of TCEP,[3],fully reduced and alkylated
"TFF2: trefoil factor family secretory peptide 2 (protein, UniProt Q03403 24-129, looked up) Trefoil factor 2: EKPSPCQCSRLSPHNRTNCGFPGITSDQCFDNGCCFDSSVTGVPWCFHPLPKQESDQCVMEVSDRRNCGYPGISPEECASRKCCFSNFIFEVPWCFFPKSVEDCHY",Resistance of the TFF domain to gastrointestinal proteases,[2],resistance
